Test results reported in patent US12365732.

Tests used:
[1] = target: hu-CD96 isoform 2 on CHO cells (human) (UniProt P40200); test: FACS, CD155-Fc-FLAG 10 nM, Ab 4 nM
[2] = target: human CD96 on primary human immune cells (PBMCs, NK cells, CD4+ T cells) (human) (UniProt P40200); test: cell-based or functional assay
[3] = target: recombinant hu-CD96 (M1-M503-polyHis) (human) (UniProt P40200); test: ELISA, blocks hu-CD96-his binding to coated CD155-hFc
[4] = target: hu-CD96 isoform 2 on CHO cells (human) (UniProt P40200); test: FACS, CD155-Fc-FLAG 10 nM, Ab 0.16 nM
[5] = target: hu-CD96 isoform 2 on CHO cells (human) (UniProt P40200); test: FACS, Ab 2 nM
[6] = target: human CD96 on primary human immune cells (PBMCs, NK cells, CD4+ T cells) (human) (UniProt P40200); test: FACS, Ab 0.64 nM
[7] = target: cynomolgus monkey CD96 on cynomolgus monkey PBMCs (cynomolgus monkey); test: FACS, Ab 0.64 nM
[8] = target: human CD96 on primary human immune cells (PBMCs, NK cells, CD4+ T cells) (human) (UniProt P40200); test: FACS, Ab 80 nM
[9] = target: cynomolgus monkey CD96 on cynomolgus monkey PBMCs (cynomolgus monkey); test: FACS, Ab 80 nM
[10] = target: hu-CD96 isoform 2 on CHO cells (human) (UniProt P40200); test: FACS, Ab 0.08 nM
[11] = target: hu-CD96 isoform 2 on CHO cells (human) (UniProt P40200); test: FACS, Ab 0.016 nM
[12] = target: hu-CD96 isoform 2 on CHO cells (human) (UniProt P40200); test: FACS, % positive curve
[13] = target: human CD96 on primary human immune cells (PBMCs, NK cells, CD4+ T cells) (human) (UniProt P40200); test: FACS, % positive curve
[14] = target: cynomolgus monkey CD96 on cynomolgus monkey PBMCs (cynomolgus monkey); test: FACS, % positive curve
[15] = target: hu-CD96 isoform 2 on CHO cells (human) (UniProt P40200); test: FACS, Ab 50 nM
[16] = target: hu-CD96 isoform 2 on CHO cells (human) (UniProt P40200); test: FACS, Ab 10 nM
[17] = target: human CD96 on primary human immune cells (PBMCs, NK cells, CD4+ T cells) (human) (UniProt P40200); test: FACS, Ab 3.2 nM
[18] = target: cynomolgus monkey CD96 on cynomolgus monkey PBMCs (cynomolgus monkey); test: FACS, Ab 3.2 nM
[19] = target: hu-CD96 isoform 2 on CHO cells (human) (UniProt P40200); test: FACS, Ab 0.4 nM
[20] = target: human CD96 on primary human immune cells (PBMCs, NK cells, CD4+ T cells) (human) (UniProt P40200); test: FACS, Ab 0.0256 nM
[21] = target: cynomolgus monkey CD96 on cynomolgus monkey PBMCs (cynomolgus monkey); test: FACS, Ab 0.0256 nM
[22] = target: hu-CD96 isoform 2 on CHO cells (human) (UniProt P40200); test: FACS, CD155-Fc-FLAG 10 nM, Ab 100 nM
[23] = target: hu-CD96 (soluble, isoform 2 extracellular domain) (human) (UniProt P40200); test: SPR 25C, IgG captured, CD96 analyte
[24] = target: human CD96 on primary human immune cells (PBMCs, NK cells, CD4+ T cells) (human) (UniProt P40200); test: FACS, Ab 0.128 nM
[25] = target: cynomolgus monkey CD96 on cynomolgus monkey PBMCs (cynomolgus monkey); test: FACS, Ab 0.128 nM
[26] = target: hu-CD96 isoform 2 on CHO cells (human) (UniProt P40200); test: FACS, CD155-Fc-FLAG 10 nM, Ab 0.032 nM
[27] = target: hu-CD96 isoform 2 on CHO cells (human) (UniProt P40200); test: FACS, blocks 10 nM CD155-Fc-FLAG binding to CD96-CHO
hu-CD96 Fc (human) = test: SPR 37C, biotin-CD96-Fc captured, IgG analyte
Chain of hu-CD96 Fc (human) (chain, as listed by the source): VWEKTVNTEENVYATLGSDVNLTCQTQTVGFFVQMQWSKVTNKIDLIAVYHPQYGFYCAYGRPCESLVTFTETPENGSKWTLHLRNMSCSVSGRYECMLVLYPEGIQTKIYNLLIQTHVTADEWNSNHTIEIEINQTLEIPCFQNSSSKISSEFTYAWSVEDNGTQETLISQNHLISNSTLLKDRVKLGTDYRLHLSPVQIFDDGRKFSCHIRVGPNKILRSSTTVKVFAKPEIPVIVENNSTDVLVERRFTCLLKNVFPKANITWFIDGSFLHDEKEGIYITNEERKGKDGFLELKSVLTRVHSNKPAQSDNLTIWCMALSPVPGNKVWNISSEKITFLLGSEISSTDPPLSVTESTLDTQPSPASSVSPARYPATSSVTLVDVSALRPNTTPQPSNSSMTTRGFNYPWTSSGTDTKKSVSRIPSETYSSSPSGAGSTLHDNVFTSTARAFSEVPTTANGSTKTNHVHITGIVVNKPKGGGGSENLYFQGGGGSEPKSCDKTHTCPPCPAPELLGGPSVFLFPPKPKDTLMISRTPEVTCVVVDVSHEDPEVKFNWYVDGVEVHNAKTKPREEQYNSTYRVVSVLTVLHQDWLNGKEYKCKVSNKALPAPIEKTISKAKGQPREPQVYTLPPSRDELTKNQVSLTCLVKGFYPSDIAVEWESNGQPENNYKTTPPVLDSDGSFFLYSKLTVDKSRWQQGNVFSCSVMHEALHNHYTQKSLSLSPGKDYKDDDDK

[28] = target: hu-CD96 isoform 2 on CHO cells (human) (UniProt P40200); test: FACS, CD155-Fc-FLAG 10 nM, Ab 0.0064 nM
[29] = target: hu-CD96 isoform 2 on CHO cells (human) (UniProt P40200); test: FACS, CD155-Fc-FLAG 10 nM, Ab 20 nM
[30] = target: human CD96 on primary human immune cells (PBMCs, NK cells, CD4+ T cells) (human) (UniProt P40200); test: FACS, Ab 16 nM
[31] = target: cynomolgus monkey CD96 on cynomolgus monkey PBMCs (cynomolgus monkey); test: FACS, Ab 16 nM
hu-CD96D1 D3-hFc (human) = test: ELISA, coated CD96D1D3-hFc
Chain of hu-CD96D1 D3-hFc (human) (chain, as listed by the source limits assumed): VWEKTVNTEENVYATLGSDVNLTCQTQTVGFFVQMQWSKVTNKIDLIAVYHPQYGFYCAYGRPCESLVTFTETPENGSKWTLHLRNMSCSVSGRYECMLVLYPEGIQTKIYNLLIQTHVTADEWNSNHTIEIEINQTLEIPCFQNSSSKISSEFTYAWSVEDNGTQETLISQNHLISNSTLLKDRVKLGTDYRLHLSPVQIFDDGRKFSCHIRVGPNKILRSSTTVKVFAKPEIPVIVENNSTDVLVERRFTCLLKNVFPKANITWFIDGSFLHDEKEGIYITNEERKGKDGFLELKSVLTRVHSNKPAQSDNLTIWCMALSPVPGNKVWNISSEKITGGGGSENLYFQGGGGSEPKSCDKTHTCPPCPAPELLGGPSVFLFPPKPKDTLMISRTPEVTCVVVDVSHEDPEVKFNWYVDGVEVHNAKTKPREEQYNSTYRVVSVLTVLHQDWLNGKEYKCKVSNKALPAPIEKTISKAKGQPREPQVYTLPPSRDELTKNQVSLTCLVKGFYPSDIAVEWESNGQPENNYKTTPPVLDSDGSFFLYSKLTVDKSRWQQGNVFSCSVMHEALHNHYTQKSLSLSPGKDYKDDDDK

[32] = target: hu-CD96 isoform 2 on CHO cells (human) (UniProt P40200); test: FACS, CD155-Fc-FLAG 10 nM, Ab 0.8 nM
[33] = target: hu-CD96 isoform 2 on CHO cells (human) (UniProt P40200); test: FACS, Ab 0.0032 nM
[34] = target: human CD96 on primary human immune cells (PBMCs, NK cells, CD4+ T cells) (human) (UniProt P40200); test: FACS, Ab 0.00512 nM
[35] = target: cynomolgus monkey CD96 on cynomolgus monkey PBMCs (cynomolgus monkey); test: FACS, Ab 0.00512 nM
hu-CD226 His tag (human) = hu-CD226 His tag (human) (UniProt Q15762); test: SPR 25C, biotin-CD226-His captured, IgG analyte
Chain of hu-CD226 His tag (human) (Q15762 19-247 limits assumed): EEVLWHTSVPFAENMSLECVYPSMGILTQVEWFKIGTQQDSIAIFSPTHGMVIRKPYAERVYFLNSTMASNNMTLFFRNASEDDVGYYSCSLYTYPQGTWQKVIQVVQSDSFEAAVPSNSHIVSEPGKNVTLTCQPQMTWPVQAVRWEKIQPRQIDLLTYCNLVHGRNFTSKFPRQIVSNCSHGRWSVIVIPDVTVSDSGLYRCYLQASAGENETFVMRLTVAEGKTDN

[36] = target: cy-CD226 His tag (cynomolgus monkey); test: SPR 25C, biotin-CD226-His captured, IgG analyte
Chain of cy-CD226 His tag (cynomolgus monkey) (chain, as listed by the source): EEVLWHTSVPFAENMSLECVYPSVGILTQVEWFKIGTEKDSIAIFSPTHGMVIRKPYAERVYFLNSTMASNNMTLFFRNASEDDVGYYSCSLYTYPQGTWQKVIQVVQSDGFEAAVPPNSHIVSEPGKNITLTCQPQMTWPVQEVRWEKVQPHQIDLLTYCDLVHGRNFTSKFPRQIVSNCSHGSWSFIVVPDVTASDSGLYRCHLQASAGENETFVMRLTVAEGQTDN

[37] = target: hu-CD96 isoform 1 on HEK293T cells (human) (UniProt P40200); test: FACS, Ab 2 nM
[38] = target: hu-CD96 isoform 1 on HEK293T cells (human) (UniProt P40200); test: FACS, Ab 0.08 nM
[39] = target: hu-CD96 isoform 1 on HEK293T cells (human) (UniProt P40200); test: FACS, Ab 0.016 nM
[40] = target: hu-CD96 isoform 1 on HEK293T cells (human) (UniProt P40200); test: FACS, Ab 50 nM
[41] = target: hu-CD96 isoform 1 on HEK293T cells (human) (UniProt P40200); test: FACS, Ab 10 nM
[42] = target: hu-CD96 isoform 1 on HEK293T cells (human) (UniProt P40200); test: FACS, Ab 0.4 nM

## NK92.39 (antibody)
[1]
  CD155-Fc binding (MedFI): 5040 MedFI
[2]
  Human NK cell IFNγ secretion (fold over background), Ab 0.08 nM: 1.38 fold
  Human NK cell IFNγ secretion (fold over background), Ab 0.4 nM: 0.69 fold
  Human NK cell IFNγ secretion (fold over background), Ab 2 nM: 1.27 fold
  Human NK cell IFNγ secretion (fold over background), Ab 10 nM: 1.39 fold
  Human NK cell IFNγ secretion (fold over background), Ab 50 nM: 1.68 fold
  Human NK cell IFNγ secretion (fold over background), Ab 250 nM: 1.62 fold
  Human NK cell IFNγ secretion, EC50: 5.53 nM
  Human NK cell IFNγ secretion, maximal efficacy relative to h10G1: 61%
[3]
  IC50: 2.57 nM
[4]
  CD155-Fc binding (MedFI): 62600 MedFI
[5]
  % positive: 15.8%
[6]
  % positive: 27.4%
[7]
  % positive: 4.7%
[8]
  % positive: 91.9%
[9]
  % positive: 4.9%
[10]
  % positive: 0.2%
[11]
  % positive: 0.1%
[12]
  EC50: 1.15 nM
[13]
  EC50: 1.22 nM
[14]
  EC50: 1.1 nM
[15]
  % positive: 22%
[16]
  % positive: 21.5%
[17]
  % positive: 76.7%
[18]
  % positive: 5.2%
[19]
  % positive: 4%
[20]
  % positive: 0.9%
[21]
  % positive: 5%
[22]
  CD155-Fc binding (MedFI): 5050 MedFI
[23]
  Kd: 14.3 nM
[24]
  % positive: 2%
[25]
  % positive: 5.2%
[26]
  CD155-Fc binding (MedFI): 69300 MedFI
[27]
  IC50: 0.91 nM
hu-CD96 Fc (human)
  Kd: 14.2 nM
  koff: 0.0012 s⁻¹
  kon: 84400 M⁻¹ s⁻¹
[28]
  CD155-Fc binding (MedFI): 64100 MedFI
[29]
  CD155-Fc binding (MedFI): 5040 MedFI
[30]
  % positive: 94.3%
[31]
  % positive: 5.4%
hu-CD96D1 D3-hFc (human)
  EC50: 0.98 nM
[32]
  CD155-Fc binding (MedFI): 40300 MedFI
[33]
  % positive: 0.1%
[34]
  % positive: 1.3%
[35]
  % positive: 4.5%

## anti-hCD226 antibody DX11
hu-CD226 His tag (human)
  Kd: 6.9 nM
[36]
  Kd: 0.02 nM

## hu-IgG1 control antibody
[1]
  CD155-Fc binding (MedFI): 63100 MedFI
[4]
  CD155-Fc binding (MedFI): 59400 MedFI
[6]
  % positive: 4.04%
[7]
  % positive: 0.59%
[8]
  % positive: 3.1%
[9]
  % positive: 2.36%
[17]
  % positive: 4.67%
[18]
  % positive: 1.15%
[20]
  % positive: 5.5%
[21]
  % positive: 0.57%
[22]
  CD155-Fc binding (MedFI): 51700 MedFI
[24]
  % positive: 3.98%
[25]
  % positive: 0.31%
[26]
  CD155-Fc binding (MedFI): 52800 MedFI
[28]
  CD155-Fc binding (MedFI): 47700 MedFI
[29]
  CD155-Fc binding (MedFI): 57300 MedFI
[30]
  % positive: 4.61%
[31]
  % positive: 0.64%
[32]
  CD155-Fc binding (MedFI): 58300 MedFI
[34]
  % positive: 5.29%
[35]
  % positive: 0.41%

## muIgG1 control antibody
[1]
  CD155-Fc binding (MedFI): 71600 MedFI
[4]
  CD155-Fc binding (MedFI): 64400 MedFI
[5]
  % positive: 0.27%
[37]
  % positive: 0.49%
[6]
  % positive: 1.5%
[7]
  % positive: 1.07%
[8]
  % positive: 2.34%
[9]
  % positive: 1.9%
[10]
  % positive: 0.11%
[38]
  % positive: 0.41%
[11]
  % positive: 0.06%
[39]
  % positive: 0.41%
[15]
  % positive: 0.42%
[40]
  % positive: 0.75%
[16]
  % positive: 0.18%
[41]
  % positive: 0.48%
[17]
  % positive: 1.42%
[18]
  % positive: 0.95%
[19]
  % positive: 0.14%
[42]
  % positive: 0.49%
[20]
  % positive: 1.48%
[21]
  % positive: 1%
[22]
  CD155-Fc binding (MedFI): 76000 MedFI
[24]
  % positive: 1.09%
[25]
  % positive: 0.83%
[26]
  CD155-Fc binding (MedFI): 65400 MedFI
[28]
  CD155-Fc binding (MedFI): 64300 MedFI
[29]
  CD155-Fc binding (MedFI): 71600 MedFI
[30]
  % positive: 2.05%
[31]
  % positive: 1.77%
[32]
  CD155-Fc binding (MedFI): 66600 MedFI
[33]
  % positive: 0.03%
[34]
  % positive: 0.98%
[35]
  % positive: 0.76%
